Patent US6858775B1, “Method for generating split, non-transferable genes that are able to express an active protein product” (New England Biolabs, Inc., priority 1999, dated 2005)

Assays:
E. coli ER2744 [1] = test: Quantitative liquid culture assay (OD600) of E. coli ER2744 in valine / SM M9 medium; format: cell-based; details: 30° C.
Method: A quantitative liquid culture assay was performed to verify the results obtained from the plating assay. The liquid assay was performed as follows. A single colony was used to inoculate LB medium supplemented with kanamycin and ampicillin at 37° C. for 4 hours. Expression was induced by 0.3 mM IPTG and cell cultures were shifted to 30° C. for another 2 hrs. Then, 200 μL of equivalent OD600 8.0 was spun down, washed one time with M9 medium and resuspended in 200 μl M9 medium. 40 μl was aliquoted into 2 ml of appropriate culture medium and grown for 24-72 hours before its OD600 was measured. The concentration for valine is 100 μg/ml and for SM is 50 μg/ml. At 30° C., all transformed cells grew equally well in M9 minimum medium (FIG. 9B). […] To further compare the growth kinetics for trans-splicing mediated cell growth to wild type ALSII mediated cell growth, a time course study was performed (FIG. 9C).

E. coli ER2744 [2] = test: Plate assay: rescue of E. coli ER2744 growth on valine or valine plus SM M9 plates; format: cell-based
Source text: E. coli ER2744 strain was employed as an in vivo model system for assessing the activity of the herbicide resistant E. coli ALSII gene, genetically modified by a linker insertion between Q327 and C328. E. coli ER2744 is derived from wild type E. coli K12 that contains the active ALSI and ALSIII enzymes, but not an active ALSII. ALSI and ALSIII are two isoforms of ALS genes in E. coli, which are crucial for the synthesis of valine, isoleucine and leucine (LaRossa and Schloss, J. Biol. Chem. 259:8753-8757 (1984)). Their activity is sensitive to the valine feedback inhibition. Therefore, by saturating the growth medium with 100 μg/ml valine (Sigma, St. Louis, Mo.), ALSI and III will be inhibited and the cells will stop growing. By introducing a recombinant herbicide resistant ALSII (ALSIIm) into E. coli cells, their growth will be rescued since ALSII is resistant to valine inhibition.
Plate assays were conducted to examine the capability of ALSIIm-14 to rescue E. coli ER2744 from valine (100 μg/ml) or valine plus herbicide SM (50 μg/ml, Supelco Park, Bellefonte, Pa.) saturated M9 minimum medium plate (Sambrook et al., (1989)). The M9 medium contains 2 μg/ml Thiamin, 2 mM MgSO4, 0.1 mM CaCl2, 0.2% glucose, 50 μg/ml of kanamycin, 100 μg/ml of ampicillin and 0.3 mM IPTG. For the plating assay, 100 μl of 25 mg/ml Valine with or without 50 μl of 25 μg/ml Sulfometuron methyl (SM) was spread on M9 selection plate. To assay bacterial growth, overnight cultures were streaked on M9 plates with or without valine and/or SM. The plates were incubated at various temperatures (as indicated in FIG. 7) for 48 to 72 hrs before the pictures were taken. On the plate supplemented with valine, cells expressing either ALSII, ALSIIm or ALSIIm-14 were able to grow (FIG. 7-a). However, when both valine and SM was applied, only strains expressing herbicide-resistant ALSIIm or ALSIIm-14 were able to grow (FIG. 7-b).
The next step was to determine whether the spliced product, as the result of trans-splicing of the ALSIIm (ALSIIm(N)—INn and ALSIIm(C)—INc) fusion proteins, would render E. coli ER2744 resistant to valine and SM. The first experiment was to test the effect of co-expression of ALSIIm(N)—INn and ALSIIm(C)—INc fusion proteins on cell growth in valine saturated M9 minimum medium. In a plating assay (see Section 4.), all transformed cells grew well on M9 medium in the absence of valine (FIG. 9A-a). […] (FIG. 9A-b, 9A-c) in the presence of valine. […] (FIG. 9A-c) or lower temperatures (data not shown) from a valine plate.

Molecule	cell growth in valine saturated M9 liquid medium (E. coli ER2744 [1]; 100 μg/ml valine)	cell growth on M9 plate in the presence of valine at both 30° C. and 37° C. (E. coli ER2744 [2]; 100 μg/ml valine)	cell growth in valine M9 liquid medium containing SM (E. coli ER2744 [1]; 100 μg/ml valine, 50 μg/ml SM)	growth rate, time course study (E. coli ER2744 [1]; M9 medium with 100 μg/ml valine)	cell growth on M9 plate with valine and herbicide SM (E. coli ER2744 [2]; 100 μg/ml valine and 50 μg/ml SM, 30° C., 0.3 mM IPTG)	cell growth on M9 plate supplemented with valine (E. coli ER2744 [2]; 100 μg/ml valine, 30° C., 0.3 mM IPTG)
ALSIIm(N)—INn: fusion of ALSIIm N-terminal 327 residues and Ssp DnaE intein N-terminal 123 residues	did not rescue cell growth	did not grow				
ALSII: wild type E. coli acetolactate synthase II expressed from plasmid pALSII (protein) MNGAQWVVHALRAQGVNTVFGYPGGAIMPVYDALYDGGVEHLLCRHEQGAAMAAIGYARATGKTGVCIATSGPGATNLITGLADALLDSIPVVAITGQVSAPFIGTDAFQEVDVLGLSLACTKHSFLVQSLEELPRIMAEAFDVACSGRPGPVLVDIPKDIQLASGDLEPWFTTVENEVTFPHAEVEQARQMLAKAQKPMLYVGGGVGMAQAVPALREFLAATKMPATCTLKGLGAVEADYPYYLGMLGMHGTKAANFAVQECDLLIAVGARFDDRVTGKLNTFAPHASVIHMDIDPAEMNKLRQAHVALQGDLNALLPALQQPLNQYDWQQHCAQLRDEHSWRYDHPGDAIYAPLLLKQLSDRKPADCVVTTDVGQHQMWAAQHIAHTRPENFITSSGLGTMGFGLPAAVGAQVARPNDTVVCISGDGSFMMNVQELGTVKRKQLPLKIVLLDNQRLGMVRQWQQLFFQERYSETTLTDNPDFLMLASAFGIHGQHITRKDQVEAALDTMLNSDGPYLLHVSIDELENVWPLVPPGASNSEMLEKLS	allowed cells to grow	rescued the cells growth	no growth	fastest growth rate	could not rescue cell growth	able to grow
